We go through one substance from article doi:10.1101/2023.06.14.544911.

Assay in all cases: pull-down
One data set relates to ZCCHC3 MF R247S (human).
The test system of another data set is ZCCHC3 MF R168S (human).
Data set [1] concerns the target T1, ZCCHC3 MF R168/247S R168S;R247S (human) (UniProt Q9NUD5).
T1 sequence: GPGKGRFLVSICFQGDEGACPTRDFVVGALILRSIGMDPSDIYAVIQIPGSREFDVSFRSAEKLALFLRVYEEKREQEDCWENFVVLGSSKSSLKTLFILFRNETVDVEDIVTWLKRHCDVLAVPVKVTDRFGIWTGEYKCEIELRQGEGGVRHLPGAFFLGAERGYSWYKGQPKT

On to HIV-1 LTR (R-U5) RNA, for which the binding signal in the data set on ZCCHC3 MF R247S (human) was 50 % of WT MF; in the data set with ZCCHC3 MF R168S (human), 50 % of WT MF; in data set [1], 15 % of WT MF.
